Measurements from paper PMC2891831, “Insight into the Mechanisms of Adenovirus Capsid Disassembly from Studies of Defensin Neutralization” (PLoS Pathogens, 2010).

Key:
[1] = test system: HAdV species A; assay: Infection assay (hexon staining), HAdV species A; assay type: cell-based, human adenovirus; conditions: 15 µM HD5, A549 cells, hexon staining at ~48 h, vs. no defensin, at least three independent experiments
Description: To determine whether sensitivity to α-defensins is a general property of HAdVs, serotypes representative of HAdV species A–F were tested for infectivity in the presence of 15 µM HD5 or HNP1 (Figure 1). Wild type HAdVs rather than vectors were used for these studies, and infectivity was assessed by staining for hexon production. […] These studies indicate that sensitivity to α-defensins is species specific. In addition, particular HAdV serotypes are not equally sensitive to all defensins, indicating defensin sequence specificity as well.
Figure 1 Sensitivity to neutralization by alpha-defensins is AdV species specific. HAdVs were incubated with 15 µM HD5 (A) or HNP1 (B) and assessed for infectivity on A549 cells. Data are the mean of the percent infectivity compared to control cells infected with each virus in the absence of defensin for at least three independent experiments ± SD. The upper limit for quantification of this assay is 200%. […]
(§1) Prior to use in this assay, each virus stock was titrated on A549 cells. […] In parallel, wells were infected with two-fold serial dilutions of each virus to establish a standard curve for quantification with an upper limit of 200%. […] Total well fluorescence above background was quantified with ImageJ software. For each virus, samples were quantified by nonlinear regression against the standard curve using Prism software (GraphPad Software, Inc., La Jolla, CA).

[2] = test system: HAdV-19c; assay: Virus-defensin binding assay, HAdV-19c; set-up: species or system human adenovirus
Excerpt: Figure 2 HD5 binding to HAdV. A) HD5 binding to a representative defensin-sensitive serotype (HAdV-5) was quantified by an equilibrium-binding assay. Data are the mean of the number of HD5 molecules bound per virion at the indicated HD5 concentrations from at least three independent experiments ± SD. Binding curves were fitted using Prism software. B) Binding of HD5 to additional defensin-sensitive (HAdV-7p) and resistant (HAdV-19c, -25p, -51p) serotypes expressed as a percent of HD5 bound to HAdV-5. Data are the mean of two or three independent experiments ± SD.
We assessed HD5 binding to additional serotypes after incubation with 20 µM HD5 (Figure 2B). The sensitive serotype HAdV-7p bound 69.3±15.9% of the amount of HD5 bound to HAdV-5 in parallel samples; whereas, the corresponding values for the resistant serotypes HAdV-19c, -25p, and -51p were 32.5±7.5%, 3.3±5.8%, and 24.6±12.0%, respectively.
To measure HD5 binding to HAdV-5 and -51, HD5 was serially diluted in PBS and mixed with 5 µg purified virus. […] The other half of each sample was used to make a standard curve for quantification. […] Virus bands were quantified using ImageQuant NT software (GE Healthcare). […] The amount of HD5 in the centrifuged samples was then quantified against the standard curve using Prism software. […]

[3] = test system: 19cF; assay: Infection assay, 19cF virus chimera; assay type: cell-based, human adenovirus
Excerpt: The availability of sensitive (e.g., HAdV-5) and resistant (e.g., HAdV-19c) serotypes provided a means to test this HD5 neutralization model by generating virus chimeras. Initially, virus chimeras were constructed by replacing the sequences for fiber, penton base, and hexon in the HAdV-5 genome with the corresponding sequences from HAdV-19c. Consistent with previous studies, [38], the virus chimera containing the HAdV-19c hexon is not viable; however, constructs containing the HAdV-19c fiber (19cF) or penton base (19cPB) are capable of replicating. […] In contrast, the 19cPB virus has an intermediate phenotype.
Figure 6 Neutralization determinants are located in fiber and penton base. A) Schematic of chimeric viruses. […] B) Each of the chimeric viruses was incubated with 5 µM (grey) or 10 µM (black) HD5 and assessed for infectivity on A549 cells. […] The upper limit for quantification of this assay is 200%.
as §1

[4] = test system: PB/GYAR; assay: Infection assay, PB/GYAR virus chimera; assay type: cell-based, human adenovirus
Description: Figure 6 Neutralization determinants are located in fiber and penton base. A) Schematic of chimeric viruses. Capsid proteins are depicted in the order in which they are encoded in the virus genome for HAdV-5 (white) and HAdV-19c (grey). The variable residues in fiber (GYAR and DTET) are indicated for each construct. B) Each of the chimeric viruses was incubated with 5 µM (grey) or 10 µM (black) HD5 and assessed for infectivity on A549 cells. Data are the mean of the percent infectivity compared to control cells infected with each virus in the absence of defensin for at least three independent experiments ± SD. The upper limit for quantification of this assay is 200%.
(§2) We then combined the GYAR substitution with the PB substitution in a single construct (PB/GYAR).
as §1, with “cells. A virus concentration was chosen to produce 50–70% maximal signal in the absence of defensin as described below.” for “cells.”

[5] = test system: HAdV-5/HAdV-19c chimeric viruses; assay: FACS-based infection assay of virus chimeras at 100-fold lower moi; assay type: cell-based, human adenovirus; conditions: data not shown
Excerpt: as §2

B1: HD5: human alpha-defensin; synthetic, obtained from Peptides International; three disulfide bonds (PDB 1ZMP) (peptide, UniProt Q01523 20-94, looked up)
Defensin alpha 5: ESLQERADEATTQKQSGEDNQDLAISFAGNGLSALRTSGSQARATCYCRTGRCATRESLSGVCEISGRLYRLCCR
modifications: Defensin-5
sensitivity to neutralization (infectivity) [1]: sensitive
HD5 bound, percent of HD5 bound to HAdV-5 ([2]; 20 µM HD5, mean of two or three independent experiments ± SD): 32.5±7.5%
level of HD5 binding (in words) ([2]; HAdV-19c): only a low level of binding
sensitivity to HD5 neutralization ([3]; 5 µM and 10 µM HD5, A549 cells, at least three independent experiments, upper limit 200%): completely resistant to neutralization
defensin-resistance at higher HD5 concentration ([3]; 20 µM HD5, data not shown): confirmed the defensin-resistance
sensitivity to HD5 neutralization ([4]; 5 µM and 10 µM HD5, A549 cells, at least three independent experiments): completely resistant to neutralization
defensin-resistance at higher HD5 concentration ([4]; 20 µM HD5, data not shown): confirmed the defensin-resistance
sensitivity phenotype of chimeras in FACS-based assay [5]: Equivalent results
